Where two headings read alike, the source gives them in different places.
How the values were obtained:
[1] = Experimental: The vials were then charged with a non-CFC tetrafluoroethane, (134a) propellant with the aid of a Pamasol 2008 semi-automatic gas filling equipment.
The aerodynamic particle size was determined by 8-stage USP Anderson Cascade Impactor-Mark-II (trade mark). The Multistage Cascade Impactor was cleaned with methanol and air-dried at 30° C. Glass fibre filters were placed on the collection plates. Seals were aligned properly and the actuator was attached to the mouthpiece and assembled onto the USP induction port and jet stages. A vacuum pump was connected and air flow rate is set to 28.3 liter/min. The vial was primed by shaking for 10 seconds and actuating twice to waste. […] […] The filters were carefully removed and placed in scintillation vials and sonicated for 15 minutes.

[2] = healthy volunteers; 10, 20, 30 units aerosol
Excerpt: Day-1: 5 puffs of 2 units each (total 10 units)
Day-2: 5 puffs of 4 units each (total 20 units)
Day-1: 5 puffs of 6 units each (total 30 units)

[3] = stage 3, U400, 4 units/actuation
[4] = stage 4, U400, 4 units/actuation
[5] = stage 5, U400, 4 units/actuation
[6] = stage 6, U400, 4 units/actuation
[7] = stage 7, U400, 4 units/actuation
[8] = stage 8, U400, 4 units/actuation

insulin
size of most particles ([1]; cascade impactor, most particles): smaller than 6 microns | particle size (conclusion) ([1]; cascade impactor, overall): about 3 microns | droplet size, generally ([1]; cascade impactor, indicates deep lung deposition): smaller than 4 microns | mg (insulin deposited) ([1]; stage 3, 2 units/actuation): 0.77 mg | units (insulin deposited) ([1]; stage 3, 2 units/actuation): 10.1 units | mg (insulin deposited) [1, 3]: 0.77 mg | units (insulin deposited) [1, 3]: 20.1 units | mg (insulin deposited) ([1]; stage 4, 2 units/actuation): 0.78 mg | units (insulin deposited) ([1]; stage 4, 2 units/actuation): 10.1 units | mg (insulin deposited) [1, 4]: 0.78 mg | units (insulin deposited) [1, 4]: 20.1 units | mg (insulin deposited) ([1]; stage 5, 2 units/actuation): 0.81 mg | units (insulin deposited) ([1]; stage 5, 2 units/actuation): 10.0 units | mg (insulin deposited) [1, 5]: 0.81 mg | units (insulin deposited) [1, 5]: 20.0 units | mg (insulin deposited) ([1]; stage 6, 2 units/actuation): 0.80 mg | units (insulin deposited) ([1]; stage 6, 2 units/actuation): 10.3 units | mg (insulin deposited) [1, 6]: 0.80 mg | units (insulin deposited) [1, 6]: 20.3 units | mg (insulin deposited) ([1]; stage 7, 2 units/actuation): 0.80 mg | units (insulin deposited) ([1]; stage 7, 2 units/actuation): 10.1 units | mg (insulin deposited) [1, 7]: 0.80 mg | units (insulin deposited) [1, 7]: 20.1 units | mg (insulin deposited) ([1]; stage 8, 2 units/actuation): 0.79 mg | units (insulin deposited) ([1]; stage 8, 2 units/actuation): 10.1 units | mg (insulin deposited) [1, 8]: 0.79 mg | units (insulin deposited) [1, 8]: 20.1 units | insulin deposition ([1]; stages 0-2): no insulin deposition | absorption of insulin through lungs and oropharynx regions [2]: significant absorption

— patent US6294153A, “Aerosol pharmaceutical formulation for pulmonary and nasal delivery” (Generex Pharmaceuticals, Inc., priority 1999, dated 2001)
